Our source for the switch fluorescence ratio values is the supplement of paper PMC10126150.

± gives the standard deviation of the averaged measurements.

The series concerns ATP. The series is described as follows: switch fluorescence ratio, 500 uM ATP over buffer (Cy3 cluster intensity, sum of 5 cycles each) (fold (ratio)); higher = stronger signal-on switching upon ATP binding; sequences stand for … in TCGTCGGCAGCGTCAGATGTGTATAAGAGACAGTTTTTTTTTTTTTTTTTTTTTTTTT…TC. The note with it: aptamer strand: ATP DNA aptamer (quencher-CACCTGGGGGAGTATTGCGGAGGAAGG + anchor), 100 nM annealed; ATP concentration: 500 uM. A digest of the protocol:
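Switching-strand clusters labelled with Cy3 on a modified Illumina MiSeq flow-cell were annealed to 100 nM quencher-labelled ATP aptamer, imaged in selection buffer, and re-imaged after 15 min with 500 uM ATP at 22 °C. This was done over five cycles with NaOH stripping and re-annealing in between. The fluorescence ratio is summed target-cycle over summed buffer-cycle Cy3 intensity per cluster, averaged per switch-domain sequence, excluding clusters outside 100-1000 RFU.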
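Further: ATP exposure 15 min at 22 °C before imaging.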

As to TATCCGAACG, the switch fluorescence ratio turned out to be 1.4467 ± 0.00019. Regarding TATCCGGGTG, the switch fluorescence ratio came to 3.23 ± 0.25.

Regarding TATCCTGGCG, the switch fluorescence ratio came out at 1.03 ± 0.057. Consider TATCGAAGGC, for which the switch fluorescence ratio is 0.982 ± 0.022. For the sequence TATCGCTGGT, the switch fluorescence ratio came to 1.04 ± 0.023. Regarding TATCGGATGG, the switch fluorescence ratio was 1.0207 ± 0.00094. As for TATCGGGGTG, the switch fluorescence ratio is 0.996 ± 0.053. On to TATCGGGGTT, for which the switch fluorescence ratio is 0.98 ± 0.046. With TATCGGGTGG, the switch fluorescence ratio was 1.01 ± 0.097. As to TATCGGTATT, the switch fluorescence ratio worked out at 1 ± 0.039. For TATCGGTCCG the value was 1.01 ± 0.024; for TATCTATCAT, 0.969 ± 0.024; for TATCTATTTT, 0.964 ± 0.011. Regarding TATCTCCAAT, the switch fluorescence ratio turned out to be 1.12 ± 0.052. As to TATCTCGGGA, the switch fluorescence ratio is 0.988 ± 0.02. For the sequence TATCTGAACG, the switch fluorescence ratio is 1.01 ± 0.037. For the sequence TATCTGCTAC, the switch fluorescence ratio amounted to 3.67 ± 0.7. Consider TATCTGGGTG, for which the switch fluorescence ratio was found to be 1.06 ± 0.029. For TATCTGGGTT, the switch fluorescence ratio is 1.06 ± 0.079. On to TATCTTTTCT, for which the switch fluorescence ratio came to 0.968 ± 0.014.

On to TATGAAACCG, for which the switch fluorescence ratio came to 1.02 ± 0.086. In the case of TATGACGCGG, the switch fluorescence ratio was 0.9833 ± 0.0053. Take TATGAGAGCC: the switch fluorescence ratio came to 1.02 ± 0.026. For TATGAGGGCA the value was 1.02 ± 0.013. Regarding TATGAGGGCG, the switch fluorescence ratio turned out to be 1.04 ± 0.041. On to TATGAGGGGC, for which the switch fluorescence ratio worked out at 0.967 ± 0.013. For TATGAGGTCT the value was 1.02 ± 0.032; for TATGATAGCC, 1.04 ± 0.037. Turning to TATGATAGGT, the switch fluorescence ratio was determined as 0.9914 ± 0.0013. Take TATGATGGGC: the switch fluorescence ratio stood at 0.9577 ± 0.0057. In the case of TATGATTACG, the switch fluorescence ratio amounted to 1.03 ± 0.013.

As for TATGATTTGC, the switch fluorescence ratio was found to be 1 ± 0.012.

Take TATGCACTGA: the switch fluorescence ratio amounted to 1.06 ± 0.024. For TATGCATTGT the value was 1.01 ± 0.017; for TATGCATTTC, 1.08 ± 0.0049. With TATGCGAGAC the figure was 2.3 ± 0.15; with TATGCGTTTT, 0.98 ± 0.013. TATGCTTATT: the switch fluorescence ratio worked out at 1 ± 0.024. Turning to TATGCTTTGG, the switch fluorescence ratio was 0.98 ± 0.03. Regarding TATGGAGTGG, the switch fluorescence ratio stood at 1 ± 0.039. On to TATGGATGGC, for which the switch fluorescence ratio is 1.01 ± 0.058.

In the case of TATGGATTAT, the switch fluorescence ratio turned out to be 1.02 ± 0.081. Regarding TATGGCCTGG, the switch fluorescence ratio came to 1.04 ± 0.015. Turning to TATGGGAGGG, the switch fluorescence ratio was 0.952 ± 0.022. Consider TATGGGAGGT, for which the switch fluorescence ratio came to 1.04 ± 0.029. Consider TATGGGCAGC, for which the switch fluorescence ratio worked out at 1.03 ± 0.018. For TATGGGCATT the value was 0.998 ± 0.016. TATGGGCGCG: the switch fluorescence ratio came out at 1.11 ± 0.23. For the sequence TATGGGGTTT, the switch fluorescence ratio was 1.01 ± 0.031. Take TATGGGTGAT: the switch fluorescence ratio was determined as 1.01 ± 0.034.

Consider TATGGGTGTG, for which the switch fluorescence ratio was 1.02 ± 0.037. In the case of TATGGGTTTT, the switch fluorescence ratio came out at 1.02 ± 0.037.

Turning to TATGGTGAGC, the switch fluorescence ratio is 1.01 ± 0.023. In the case of TATGGTTAAT, the switch fluorescence ratio is 0.982 ± 0.016. As to TATGTAAGGA, the switch fluorescence ratio came out at 0.985 ± 0.041. With TATGTAATGT the figure was 0.993 ± 0.031; with TATGTACACA, 1.02 ± 0.059; with TATGTACGGG, 1.0612 ± 0.00037. As for TATGTACTAG, the switch fluorescence ratio was determined as 1.049 ± 0.0089. As to TATGTAGATT, the switch fluorescence ratio came out at 1.017 ± 0.01. In the case of TATGTAGTAG, the switch fluorescence ratio came out at 0.971 ± 0.042. Take TATGTAGTCG: the switch fluorescence ratio is 1.02 ± 0.038.

For TATGTATATA, the switch fluorescence ratio is 1.01 ± 0.079. Regarding TATGTATCTA, the switch fluorescence ratio worked out at 1.02 ± 0.043.

Consider TATGTATTAT, for which the switch fluorescence ratio was found to be 0.994 ± 0.062. With TATGTCATGT the figure was 1.02 ± 0.011; with TATGTCATTT, 0.957 ± 0.011; with TATGTCCAGT, 1.0009 ± 0.00027. Take TATGTCTCTT: the switch fluorescence ratio was determined as 1.02 ± 0.021. With TATGTCTTTA, the switch fluorescence ratio turned out to be 1 ± 0.017.

For the sequence TATGTGAGCA, the switch fluorescence ratio came out at 0.99 ± 0.014.

On to TATGTGGCT, for which the switch fluorescence ratio amounted to 1.017 ± 0.0043. Take TATGTGGGAA: the switch fluorescence ratio turned out to be 1.01 ± 0.062. As for TATGTGGTTG, the switch fluorescence ratio came to 0.99 ± 0.016. For the sequence TATGTGTCAG, the switch fluorescence ratio is 0.977 ± 0.012. Consider TATGTGTGAT, for which the switch fluorescence ratio is 0.996 ± 0.013. In the case of TATGTGTGGG, the switch fluorescence ratio is 1.01 ± 0.026. For the sequence TATGTGTTGG, the switch fluorescence ratio stood at 0.992 ± 0.025. Consider TATGTTAGAT, for which the switch fluorescence ratio is 1.002 ± 0.01. With TATGTTAGTC, the switch fluorescence ratio was determined as 0.988 ± 0.054. With TATGTTGCAA, the switch fluorescence ratio stood at 1.01 ± 0.025.

As for TATGTTGGAT, the switch fluorescence ratio came to 0.988 ± 0.012. For TATGTTTATT, the switch fluorescence ratio turned out to be 1.03 ± 0.011. For the sequence TATGTTTCCT, the switch fluorescence ratio is 1.02 ± 0.037. On to TATGTTTCGT, for which the switch fluorescence ratio was determined as 1.01 ± 0.041. Take TATGTTTGAA: the switch fluorescence ratio amounted to 0.984 ± 0.015. For TATTAACCTT, the switch fluorescence ratio worked out at 1.6415 ± 0.00013. For TATTAAGCAG, the switch fluorescence ratio was found to be 1.07 ± 0.038. As for TATTAAGTAT, the switch fluorescence ratio is 1.01 ± 0.019. For TATTAATGTG the value was 0.974 ± 0.042; for TATTACACAT, 1.01 ± 0.04; for TATTAGAGGT, 0.997 ± 0.019. As for TATTAGATTC, the switch fluorescence ratio was found to be 0.9656 ± 0.0023.

As for TATTAGGCAT, the switch fluorescence ratio came to 1.15 ± 0.23. Take TATTAGGCGC: the switch fluorescence ratio came out at 0.982 ± 0.022.

On to TATTAGGGGA, for which the switch fluorescence ratio is 1.02 ± 0.013. With TATTAGTCAG the figure was 1 ± 0.023; with TATTATCTGC, 0.971 ± 0.021. Consider TATTATGACC, for which the switch fluorescence ratio was 1.01 ± 0.043. For TATTATGATC, the switch fluorescence ratio was found to be 1.03 ± 0.02. TATTATGGCA: the switch fluorescence ratio amounted to 1.02 ± 0.08. Regarding TATTATTGGT, the switch fluorescence ratio was 0.992 ± 0.045. TATTATTTGT: the switch fluorescence ratio turned out to be 0.994 ± 0.053. As for TATTATTTTG, the switch fluorescence ratio was 1 ± 0.049. On to TATTCAACGG, for which the switch fluorescence ratio turned out to be 1.02 ± 0.028. As to TATTCAAGTT, the switch fluorescence ratio came to 1 ± 0.024. As to TATTCAGGGG, the switch fluorescence ratio worked out at 1.03 ± 0.058.

For TATTCAGTGC, the switch fluorescence ratio was determined as 1.01 ± 0.046. Consider TATTCATGTT, for which the switch fluorescence ratio turned out to be 0.991 ± 0.029. On to TATTCCGCC, for which the switch fluorescence ratio worked out at 2.29 ± 0.033. For TATTCGGGAG, the switch fluorescence ratio is 1.0052 ± 0.00035.

As for TATTCTCATT, the switch fluorescence ratio is 0.977 ± 0.023. Turning to TATTGACGGG, the switch fluorescence ratio was found to be 0.9956 ± 0.0023. As for TATTGAGCGT, the switch fluorescence ratio came to 1 ± 0.044.

In the case of TATTGAGGGG, the switch fluorescence ratio is 1 ± 0.038.

Consider TATTGATAGC, for which the switch fluorescence ratio was 1.014 ± 0.0083.

With TATTGCGGCA, the switch fluorescence ratio turned out to be 1.011 ± 0.0051. TATTGCTTCT: the switch fluorescence ratio was determined as 0.9913 ± 0.0021.

TATTGGGCCT: the switch fluorescence ratio is 1 ± 0.051. As for TATTGGGGGA, the switch fluorescence ratio was 0.995 ± 0.043.
